Measurements: patent US20060110789

Assays:
[1] = target: T1, diketide-ACP4(4) (DEBS ACP4 with its natural C-terminal linker, loaded with diketide), Q03132
T1 chain: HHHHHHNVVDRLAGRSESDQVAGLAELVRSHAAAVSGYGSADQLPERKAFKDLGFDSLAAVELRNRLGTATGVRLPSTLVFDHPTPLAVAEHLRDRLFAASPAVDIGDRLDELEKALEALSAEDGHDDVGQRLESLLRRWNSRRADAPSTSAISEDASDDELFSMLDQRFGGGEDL

[2] = target: T2, diketide-ACP2(4) (DEBS ACP2 with the C-terminal linker of module 4, loaded with diketide), Q03131
T2 chain: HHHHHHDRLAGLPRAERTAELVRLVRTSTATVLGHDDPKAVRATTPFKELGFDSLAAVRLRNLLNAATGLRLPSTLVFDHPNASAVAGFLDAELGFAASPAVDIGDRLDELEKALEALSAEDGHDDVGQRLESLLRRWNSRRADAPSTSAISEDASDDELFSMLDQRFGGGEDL

B1: (5)M3+TE (module 3 of DEBS with the N-terminal linker of module 5, fused to thioesterase) (protein)
chain: MSGDNGMTEEKLRRYLKRTVTELDSVTARLREVEHRAGIAIVSMACRLPGGVNTPQRLWELLREGGETLSGFPTDRGWDLARLHHPDPDNPGTSYVDKGGFLDDAAGFDAEFFGVSPREAAAMDPQQRLLLETSWELVENAGIDPHSLRGTATGVFLGVAKFGYGEDTAAAEDVEGYSVTGVAPAVASGRISYTMGLEGPSISVDTACSSSLVALHLAVESLRKGESSMAVVGGAAVMATPGVFVDFSRQRALAADGRSKAFGAGADGFGFSEGVTLVLLERLSEARRNGHEVLAVVRGSALNQDGASNGLSAPSGPAQRRVIRQALESCGLEPGDVDAVEAHGTGTALGDPIEANALLDTYGRDRDADRPLWLGSVKSNIGHTQAAAGVTGLLKVVLALRNGELPATLHVEEPTPHVDWSSGGVALLAGNQPWRRGERTRRARVSAFGISGTNAHVIVEEAPEREHRETTAHDGRPVPLVVSARTTAALRAQAAQIAELLERPDADLAGVGLGLATTRARHEHRAAVVASTREEAVRGLREIAAGAATADAVVEGVTEVDGRNVVFLFPGQGSQWAGMGAELLSSSPVFAGKIRACDESMAPMQDWKVSDVLRQAPGAPGLDRVDVVQPVLFAVMVSLAELWRSYGVEPAAVVGHSQGEIAAAHVAGALTLEDAAKLVVGRSRLMRSLSGEGGMAAVALGEAAVRERLRPWQDRLSVAAVNGPRSVVVSGEPGALRAFSEDCAAEGIRVRDIDVDYASHSPQIERVREELLETTGDIAPRPARVTFHSTVESRSMDGTELDARYWYRNLRETVRFADAVTRLAESGYDAFIEVSPHPVVVQAVEEAVEEADGAEDAVVVGSLHRDGGDLSAFLRSMATAHVSGVDIRWDVALPGAAPFALPTYPFQRKRYWLQPAAPAAASDELAYRVSWTPIEKPESGNLDGDWLVVTPLISPEWTEMLCEAINANGGRALRCEVDTSASRTEMAQAVAQAGTGFRGVLSLLSSDESACRPGVPAGAVGLLTLVQALGDAGVDAPVWCLTQGAVRTPADDDLARPAQTTAHGFAQVAGLELPGRWGGVVDLPESVDDAALRLLVAVLRGGGRAEDHLAVRDGRLHGRRVVRASLPQSGSRSWTPHGTVLVTGAASPVGDQLVRWLADRGAERLVLAGACPGDDLLAAVEEAGASAVVCAQDAAALREALGDEPVTALVHAGTLTNFGSISEVAPEEFAETIAAKTALLAVLDEVLGDRAVEREVYCSSVAGIWGGAGMAAYAAGSAYLDALAEHHRARGRSCTSVAWTPWALPGGAVDDGYLRERGLRSLSADRAMRTWERVLAAGPVSVAVADVDWPVLSEGFAATRPTALFAELAGRGGQAEAEPDSGPTGEPAQRLAGLSPDEQQENLLELVANAVAEVLGHESAAEINVRRAFSELGLDSLNAMALRKRLSASTGLRLPASLVFDHPTVTALAQHLRICCAGTAAISGPHEFTRLAGALRGIAPVRAVPQPGYEEGEPLPSSMAAVAAVQADAVIRTQGDKPFVVAGHSAGALMAYALATELLDRGHPPRGVVLIDVYPPGHQDAMNAWLEELTATLFDRETVRMDDTRLTALGAYDRLTGQWRPRETGLPTLLVSAGEPMGPWPDDSWKPTWPFEHDTVAVPGDHFTMVQEHADAIARHIDAWHHHHHH
For B1, the “kcat/KM, fold decrease against the matched reaction (FIG. 27 C)” value [1] was “fell approximately 3-5 fold and 80-200 fold, respectively”, the “triketide lactone formation at 20 µM substrate (FIG. 27 C)” value [1] was “transfer of diketide from the donor ACP to the acceptor module occurred at 20 µM substrate concentration” and the “KM of transfer and elongation, fold increase against the natural linker pair (diketide-ACP2(2) with (3)M3+TE)” value [2] was “increases the KM for the ACP2-module 3 reaction by approximately 7-fold”. The kcat/KM [2] was “the kcat/KM value decreases to 56 min^-1mM^-1”.
